Patent publication US20230321241A1, “CANCER PEPTIDE VACCINE AND METHOD OF PREPARING THE SAME” (BrightPath Biotherapeutics Co., Ltd., priority 2020, published 2023)
Where a SMILES comes first, the peptide text is derived from it. Where no end group is shown, it is not given here.

Columns and labels:
Assay type in all cases: physicochemical
[1] = Test Example 1: examination of peptide solubility in citrate/phosphate buffers; conditions: for result (whether peptide drug substance was dissolved): room temperature 24 hours
Description: The solubility of a peptide drug substance (purity 95 w/w % or more, PPL) was examined for the peptides Asn-Val-Leu-His-Phe-Phe-Asn-Ala-Pro-Leu (SEQ ID NO: 1), Ala-Ser-Leu-Asp-Ser-Asp-Pro-Trp-Val (SEQ ID NO: 2), Lys-Leu-Lys-His-Tyr-Gly-Pro-Gly-Trp-Val (SEQ ID NO: 3), and Leu-Leu-Gln-Ala-Glu-Ala-Pro-Arg-Leu (SEQ ID NO: 4), respectively. First, 10 mM citrate buffers (Citrate) or phosphate buffers (Phosphate) containing 270 mM trehalose from pH 3.0 to pH 8.0 were prepared and the peptide drug substance was added to each buffer so as to provide a predetermined peptide concentration. The mixture was stirred and allowed to stand at room temperature for 24 hours to evaluate whether the peptide drug substance was dissolved.

[2] = Example 1: peptide cocktail preparation standing at room temperature for 6 hours; conditions: for HPLC analysis: peptide concentration: in peptide cocktail preparation of Example 1 (with GM-CSF); for HPLC analysis: % vs T0: in peptide cocktail preparation of Example 1, T = 6 hours
Description: Using the lyophilized peptide preparations produced in Preparation Example 1, a peptide cocktail preparation to be administered was prepared as follows. First, 1 mL of purified water was added to each lyophilized peptide preparation, and the lyophilized product in the vial was dissolved to prepare a peptide solution. All the peptide solutions were collected from the respective vials and transferred to a different vial to provide a peptide cocktail preparation. Also, a GM-CSF lyophilized preparation (product name: Lukine ([…]), Sanofi) was dissolved in 1 mL of purified water and 0.6 mL of the solution thus obtained was added as an adjuvant to 1.4 mL of the peptide cocktail preparation to provide a peptide cocktail preparation to be administered. Then, the peptide cocktail preparation thus obtained was allowed to stand at room temperature for 6 hours, and evaluated for changes in peptide concentration, pH (25° C.), and osmotic pressure compared with those before standing.

[3] = Preparation Example 2: stability of lyophilized peptide cocktail preparation; conditions: T = 1 (1 month at 25° C., humidity 60%)
Description: To produce a lyophilized peptide cocktail preparation and confirm the stability of the preparation, 500 mL of a peptide cocktail preparation was prepared in the same manner as in Example 1, and then the preparation was aseptically filled to a glass vial at 1 mL per vial and lyophilized to provide a lyophilized peptide cocktail preparation. Then, immediately after the preparation (T=0) or after storage at room temperature (25° C., humidity 60%) for 1 month from the preparation (T=1), 1 mL of purified water was added to the lyophilized preparation to dissolve the peptides. Appearance, solubility, peptide stability, and pH were evaluated.

[4] = Test Example 3: peptide stability in solution (HPLC); conditions: for % difference vs T = 0 / Conc.: buffers as Table 3; for T0 Conc.: time of preparation, buffers: SEQ1 pH 3.5 50 mM Gly-HCl + 200 mM trehalose, SEQ2 pH 4.0, SEQ3 pH 7.0, SEQ4 pH 6.0 in 10 mM citrate + 270 mM trehalose
Description: Based on the results of Test Example 1 and Test Example 2, the stability of the peptides was examined. First, peptide drug substances (purity 95 w/w % or more, PPL) were dissolved in the buffers shown in Table 3, respectively, to prepare peptide solutions of the peptides of SEQ ID NOs: 1 to 4 at the final concentration of 10 mg/mL. […] In the evaluation, samples were collected at the time of preparation of the peptide solution, after 24 hours, and after 48 hours, and stored at −20° C. The peptide concentration was measured by HPLC after all the samples were collected, and compared with the peptide concentration at the time of preparation (T=0).

[5] = Test Example 2: solubility of SEQ ID NO: 1 in glycine-HCl buffers; conditions: for result (solubility): 270 mM trehalose, 24 hours
Description: The solubility of the peptide drug substance of SEQ ID NO: 1 (purity 95 w/w % or more, PPL) was examined as described below. First, 10 to 500 mM glycine-HCl buffers containing 270 mM trehalose from pH 2.5 to 3.5 were prepared, and the peptide drug substance was added to 2 mL of each buffer so that the peptide concentration was 10 to 25 mg/mL.

Compound	HPLC analysis: peptide concentration ([2]; T = 0 hour)	HPLC analysis: peptide concentration ([2]; T = 6 hours, room temperature)	HPLC analysis: % vs T0 ([2]; room temperature)	change in peptide amount % vs T = 0 (100%) (HPLC analysis) [3]	% difference vs T = 0 ([4]; T = 24 h, 25° C./60% RH)	Conc. ([4]; T = 24 h, 25° C./60% RH)	% difference vs T = 0 ([4]; T = 24 h, 40° C./75% RH)	Conc. ([4]; T = 24 h, 40° C./75% RH)	% difference vs T = 0 ([4]; T = 48 h, 25° C./60% RH)	Conc. ([4]; T = 48 h, 25° C./60% RH)	% difference vs T = 0 ([4]; T = 48 h, 40° C./75% RH)	Conc. ([4]; T = 48 h, 40° C./75% RH)	T0 Conc. [4]	further results
LLQAEAPRL [SEQ ID NO: 4]	SEQ ID NO: 4: 2.8 mg/mL	3.0 mg/mL	106.4%	SEQ ID NO: 4: 101.2%	−1%	10470 µg/mL	1%	10680 µg/mL	−4%	10160 µg/mL	−1%	10470 µg/mL	10.61 mg/mL	result (whether peptide drug substance was dissolved) ([1]; 10 mM Citrate pH 3.0, 270 mM trehalose, final conc. 20 mg/mL): dissolved; result (whether peptide drug substance was dissolved) ([1]; 10 mM Citrate pH 3.5, 270 mM trehalose, final conc. 20 mg/mL): dissolved; result (whether peptide drug substance was dissolved) ([1]; 10 mM Citrate pH 4.0, 270 mM trehalose, final conc. 28.6 mg/mL): dissolved; result (whether peptide drug substance was dissolved) ([1]; 10 mM Citrate pH 5.0, 270 mM trehalose, final conc. 20 mg/mL): dissolved; result (whether peptide drug substance was dissolved) ([1]; 10 mM Citrate pH 6.0, 270 mM trehalose, final conc. 28.6 mg/mL): dissolved; result (whether peptide drug substance was dissolved) ([1]; 10 mM Phosphate pH 7.0, 270 mM trehalose, final conc. 25 mg/mL): dissolved; result (whether peptide drug substance was dissolved) ([1]; 10 mM Phosphate pH 7.5, 270 mM trehalose, final conc. 25 mg/mL): dissolved; result (whether peptide drug substance was dissolved) ([1]; 10 mM Phosphate pH 8.0, 270 mM trehalose, final conc. 25 mg/mL): dissolved
Ala-Ser-Leu-Asp-Ser-Asp-Pro-Trp-Val (ASLDSDPWV) [SEQ ID NO: 2]	SEQ ID NO: 2: 2.7 mg/mL	2.8 mg/mL	107.0%	SEQ ID NO: 2: 100.4%	0%	10850 µg/mL	−6%	10240 µg/mL	−5%	10370 µg/mL	−20%	8760 µg/mL	10.89 mg/mL	result (whether peptide drug substance was dissolved) ([1]; 10 mM Citrate pH 3.0, 270 mM trehalose, final conc. 66.67 mg/mL): dissolved; result (whether peptide drug substance was dissolved) ([1]; 10 mM Citrate pH 3.5, 270 mM trehalose, final conc. 66.67 mg/mL): dissolved; result (whether peptide drug substance was dissolved) ([1]; 10 mM Citrate pH 4.0, 270 mM trehalose, final conc. 100 mg/mL): dissolved; result (whether peptide drug substance was dissolved) ([1]; 10 mM Citrate pH 5.0, 270 mM trehalose, final conc. 100 mg/mL): dissolved; result (whether peptide drug substance was dissolved) ([1]; 10 mM Citrate pH 6.0, 270 mM trehalose, final conc. 100 mg/mL): dissolved; result (whether peptide drug substance was dissolved) ([1]; 10 mM Phosphate pH 7.0, 270 mM trehalose, final conc. 100 mg/mL): dissolved; result (whether peptide drug substance was dissolved) ([1]; 10 mM Phosphate pH 7.5, 270 mM trehalose, final conc. 100 mg/mL): dissolved; result (whether peptide drug substance was dissolved) ([1]; 10 mM Phosphate pH 8.0, 270 mM trehalose, final conc. 100 mg/mL): dissolved; degraded ([4]; stored at 75% humidity for 48 hours): 20%
CC(C)C[C@H](NC(=O)[C@@H]1CCCN1C(=O)[C@H](C)NC(=O)[C@H](CC(N)=O)NC(=O)[C@H](Cc1ccccc1)NC(=O)[C@H](Cc1ccccc1)NC(=O)[C@H](Cc1c[nH]cn1)NC(=O)[C@H](CC(C)C)NC(=O)[C@@H](NC(=O)[C@@H](N)CC(N)=O)C(C)C)C(=O)O [SEQ ID NO: 1, Asn-Val-Leu-His-Phe-Phe-Asn-Ala-Pro-Leu] (H-NVLHFFNAPL-OH; N-terminus and C-terminus assumed)														solubility (summary of Table 1) ([1]; any of the conditions (pH 3.0 to 8.0), final concentration of 20 mg/mL): could not be dissolved; stability / precipitation in the cocktail preparation ([2]; pH 4.9): stable without precipitation; result (solubility) ([5]; glycine-HCl buffer pH 2.5, glycine 10 mM (0.75 mg/mL), final conc. of peptide 20 mg/mL, mass ratio peptide/glycine 26.67): dissolved; result (solubility) ([5]; glycine-HCl buffer pH 3, glycine 10 mM (0.75 mg/mL), final conc. of peptide 20 mg/mL, mass ratio 26.67): dissolved; result (solubility) ([5]; glycine-HCl buffer pH 3.5, glycine 10 mM (0.75 mg/mL), final conc. of peptide 20 mg/mL, mass ratio 26.67): dissolved; result (solubility) ([5]; glycine-HCl buffer pH 3.5, glycine 50 mM (3.75 mg/mL), final conc. of peptide 10 mg/mL, mass ratio 2.67): dissolved; result (solubility) ([5]; glycine-HCl buffer pH 3.5, glycine 50 mM (3.75 mg/mL), final conc. of peptide 25 mg/mL, mass ratio 6.67): white turbid; result (solubility) ([5]; glycine-HCl buffer pH 3.5, glycine 100 mM (7.5 mg/mL), final conc. of peptide 10 mg/mL, mass ratio 1.33): dissolved; result (solubility) ([5]; glycine-HCl buffer pH 3.5, glycine 100 mM (7.5 mg/mL), final conc. of peptide 25 mg/mL, mass ratio 3.33): white turbid; result (solubility) ([5]; glycine-HCl buffer pH 3.5, glycine 200 mM (15 mg/mL), final conc. of peptide 10 mg/mL, mass ratio 0.67): dissolved; result (solubility) ([5]; glycine-HCl buffer pH 3.5, glycine 300 mM (22.5 mg/mL), final conc. of peptide 10 mg/mL, mass ratio 0.44): dissolved; result (solubility) ([5]; glycine-HCl buffer pH 3.5, glycine 500 mM (37.5 mg/mL), final conc. of peptide 25 mg/mL, mass ratio 0.67): white turbid; solubility (summary of Table 2) ([5]; peptide concentration of 25 mg/mL, even when glycine concentration was 500 mM): could not be dissolved
KLKHYGPGWV [SEQ ID NO: 3]	SEQ ID NO: 3: 2.5 mg/mL	2.7 mg/mL	107.7%	SEQ ID NO: 3: 104.5%	2%	11420 µg/mL	4%	11700 µg/mL	4%	11630 µg/mL	4%	11740 µg/mL	11.23 mg/mL	result (whether peptide drug substance was dissolved) ([1]; 10 mM Citrate pH 3.0, 270 mM trehalose, final conc. 200 mg/mL): dissolved; result (whether peptide drug substance was dissolved) ([1]; 10 mM Citrate pH 3.5, 270 mM trehalose, final conc. 200 mg/mL): dissolved; result (whether peptide drug substance was dissolved) ([1]; 10 mM Citrate pH 4.0, 270 mM trehalose, final conc. 200 mg/mL): dissolved; result (whether peptide drug substance was dissolved) ([1]; 10 mM Citrate pH 5.0, 270 mM trehalose, final conc. 200 mg/mL): dissolved; result (whether peptide drug substance was dissolved) ([1]; 10 mM Citrate pH 6.0, 270 mM trehalose, final conc. 200 mg/mL): dissolved; result (whether peptide drug substance was dissolved) ([1]; 10 mM Phosphate pH 7.0, 270 mM trehalose, final conc. 200 mg/mL): dissolved; result (whether peptide drug substance was dissolved) ([1]; 10 mM Phosphate pH 7.5, 270 mM trehalose, final conc. 200 mg/mL): dissolved; result (whether peptide drug substance was dissolved) ([1]; 10 mM Phosphate pH 8.0, 270 mM trehalose, final conc. 200 mg/mL): dissolved
